Data set [1] relates to Wistar rats. The experiment in a line: Continuous intraventricular administration of nesfatin antisense RNA, food intake and body weight. The data set is classed as in vivo, rat. As for the experimental part: As the antisense RNA against nesfatin-1 gene, was used a morpholino RNA which sandwiches a translational start site, as follows.
The administration of nesfatin antisense RNA was carried out into the ventricle by an osmotic pump for 12 consecutive days using an osmotic pump. Among 8 week-old male Wistar rats (purchased from Nippon SLC), those individuals weighing 200-250 g were selected and used. The rats received intraperitoneal administration of 40 mg/kg body weight of pentobarbital sodium for anesthesia. After the hair was removed from the head, they were fixed in a brain stereotaxic apparatus (David Kopf Instruments, Model 962) and the scalp was incised and a 23G needle (guide cannula) was implanted so that the tip reaches the third ventricle (2.5 mm behind the bregma, 9.5 mm from the surface). One week after implanting the guide cannula, the animals were subjected to the experiment. The osmotic pump used was Alzet's Model 2002 that was primed in sterilized physiological saline from the day before use. Nesfatin antisense RNA (antisense administration group) dissolved in physiological saline that was filter-sterilized with 0.22 μm Millex GV filter, or missence RNA (ATcGTgCTCCACgTCATCTaCAcAG) sterilized in the same manner that dissolved in sterilized physiological saline (control group) were injected into the osmotic pump immediately before use. […] The measurement of the amount of food intake started from the day after the cannula and the osmotic pump were implanted, and the weight of the residual food was measured at 9 a.m. every day and, by determining the difference from the weight of the food on the previous day, the amount of food intake of the day (24 hours) was calculated. From day 6 after the start of administration, body weight was measured at the time of measuring the amount of food intake, and changes in body weight were also recorded.

In the next data set the test system is nesfatin-1. The experiment in a line: Western blotting of nesfatin-1 in hypothalamus after antisense RNA administration (densitometry). Format: in vivo. Particulars: rat hypothalamus, day 12; control group 14.3±1.2 AU. How it is done:
On day 12 after the start of administration, the individuals in each group were sacrificed, and the hypothalamus in the brain was removed. Using the sample extracted, the expression of nesfatin was confirmed by Western blotting with nesfatin-1 Ab. Western blotting was carried out in a manner similar to those described in Working Examples 13 and 12. The concentration of bands stained in Western blotting was determined by densitometry.

In data set [2] the test system is Wistar rats. The experiment in a line: Administration of recombinant nesfatin into the third ventricle, amount of food intake. Format: in vivo, rat. The settings on record: for control activity of food intake: 1-3 hour and 3-6 hours. How it is done:
Rats used were Wistar rats (purchased from Nippon SLC), and the animals were housed under a cycle of 12 hours of the light period from 6 a.m. to 6 p.m. and 12 hours of the dark period from 6 p.m. to 6 a.m. the next morning and fed a powder chew (Nippon Clea, CE-2), and kept at 22° C., and housing was continued under a similar condition during the experiment. For the experiment, among 8-9 week-old male Wistar rats, those individuals weighing 200-250 g were used. For administration, 5 μl of saline (control) or recombinant nesfatin prepared in Working Example 5 dissolved to 0.2 pmol, 0.6 pmol and 3.0 pmol in 5 μl of PBS was administered per individual (N=5 for each group). The rats received intraperitoneal administration of 40 mg/kg body weight of pentobarbital sodium for anesthesia. After the hair was removed from the head, they were fixed in a brain stereotaxic apparatus (David Kopf Instruments, Model 962) and the scalp was incised and a 23G needle (guide cannula) was implanted so as to reach the third ventricle (2.5 mm behind the bregma, 9.5 mm from the surface). One week after implanting the guide cannula, the animals were subjected to the experiment. After recovering from the surgery, a 29G cannula for injection was inserted into the guide cannula under no anesthesia, and 5 μl of PBS or the matured mouse nesfatin solution in PBS was administered at a rate of 1 μl/second. After fixing the cannula as it was for 2-3 minutes after the administration, the cannula was extracted, and the animals were returned to the individual cages. One, three, and six hours thereafter, the weight of the food was determined to record the amount of food intake, which was used as an index of feeding behavior. For the test of significant difference, analysis of variance was used.
The PCR product obtained was subjected to 1% agarose gel electrophoresis to excise an amplified band, which was purified with QIAEX-II kit (QIAGEN). The amplified DNA excised was cleaved with restriction enzymes SpeI and NotI, and ligated to pET41a(+) plasmid vector (Novagen) cleaved with restriction enzymes SpeI and NotI, using the Quick DNA ligase kit (New England Biolabs). From the cloned DNA, a clone, which has no errors in mutant portions introduced after analyzing DNA sequences in a similar manner to Working Example 5 and other nucleotide sequences, can be selected to obtain a vector for expressing the KR-AA mutant. The expression and purification were carried out in a similar manner to Working Example 5. The amino acid sequence of the KR-AA mutant obtained is set forth in SEQ ID NO: 61. Wt (normal nesfatin), which was prepared in Working Example 5, was used. 5 pmol each of the KR-AA mutant (Mut) peptide and the normal nesfatin (Wt) peptide were administered to the third ventricle of rats in a similar manner to Working Example 6. One, three, six and 12 hours thereafter, the weight of the food was determined to record the amount of food intake, which was used as an index of feeding behavior.
Also, in the same manner as in Working Example 6, after 5 pmol of nesfatin was administered into the rat ventricle, the amount of food intake was determined during 0-1 hour/1-3 hours/3-6 hours after the administration. The control group used was the one that only received physiological saline (0 pmol). For testing of significant difference, analysis of variance was used.

Data set [3] deals with Wistar rats. The experiment in a line: Administration of nesfatin-1, nesfatin-2, nesfatin-3, nesfatin-2/3 into the third ventricle, amount of food intake. The settings on record: given alone into the third ventricle (nesfatin-1 5 pmol; leptin 1 μg); vs saline control. The data set is classed as in vivo, rat. As for the experimental part: Samples used for intracerebral administration were PBS alone (vehicle group), or nesfatin-1, nesfatin-2, nesfatin-3 or nesfatin-2/3 prepared in Working Example 10 each dissolved in PBS, and 25 pmol was administered per individual into the third ventricle immediately before the dark period. Rats used were Wistar rats (purchased from Nippon SLC) and were housed as in Working Example 6, and among 8-9 week-old male Wistar rats, those individuals weighing 200-250 g were selected and used (N=5). The technique of intraventricular administration and the measurement of the amount of food intake in rats were carried out in a method similar to those in Working Example 6. In the measurement of the amount of food intake, the reduced amount of food at 1 hour after administration (0-1 hr) and 2 hours after administration (1-3 hrs) was determined as food intake.
In the same condition above, 1, 5 or 25 pmol of nesfatin-1 as a sample was administered per rat individual into the third ventricle immediately before the dark period. In this experiment, the amount of food intake was determined at 1 hour after administration (0-1 hr).
The experimental condition was similar to that in Working Example 12, and 5 pmol of nesfatin-1 was administered into the third ventricle of the rat brain immediately before the start of the dark period, the amount decreased of the food (the amount of food intake) during 1 hour immediately after administration (0-1 hr), during 2 hours from 1 hour after the administration (1-3 hr), during 3 hours from 3 hours after the administration (3-6 hr), and during 6 hours from 6 hours after the administration (6-12 hr) was measured as the amount of food intake. As the control group, the amount of food intake by individuals that received physiological saline alone was measured.
The experimental condition was similar to that in Working Example 12, and for a group that received 5 pmol of nesfatin-1 alone into the third ventricle of the rat brain immediately before the start of the dark period and a group that received 5 pmol of nesfatin-1 and 8 μg of anti-nesfatin-1 antibody (nesfatin-1 IgG), the amount of food intake for 1 hour after administration was measured and compared to that for the control group (physiological saline alone was administered). Also, for a group that received only leptin (Rat leptin: R & D Systems, 598-LP-01M) (1 μg) which is known to have an activity of suppressing food intake by intraventricular administration and a group that received leptin and anti-nesfatin-1 antibody, its effect on food intake was also studied.

Where [4] appears, read: 5 pmol intraventricular, 0-1 hour.

Residue numbers refer to the chain shown, from its start.

Take “5-ATGGTCCTCCACCTCATCTTCAGAG-3 (all phosphorodiamidate morpholino (PMO)) [nesfatin antisense RNA]”: the “amount of food intake during 24 hours” value in the data set with Wistar rats [1] (40 μg, osmotic pump, third ventricle, 12 days, from day 1, vs missense RNA control) is given as “an increase in the amount of food intake”. For the same molecule, the body weight entry in the data set on Wistar rats [1] (day 6 after the start of administration, vs missense RNA control) was “no difference”; in the data set with Wistar rats [1] (day 7 and after, P<0.05 vs missense RNA control), “significant increase in body weight”. Moreover, in the data set with nesfatin-1, the “expression of nesfatin-1, band intensity by densitometry” value is given as 8.5±0.7 AU.

B1: recombinant nesfatin: recombinant matured mouse nesfatin (SEQ ID NO: 26) expressed in E. coli as GST fusion and cleaved with thrombin (protein)
chain: GSPIDVDKTKVHNTEPVENARIEPPDTGLYYDEYLKQVIEVLETDPHFREKLQKADIEEIRSGRLSQELDLVSHKVRTRLDELKRQEVGRLRMLIKAKLDALQDTGMNHHLLLKQFEHLNHQNPNTFESRDLDMLIKAATADLEQYDRTRHEEFKKYEMMKEHERREYLKTLSEEKRKEEESKFEEMKRKHEDHPKVNHPGSKDQLKEVWEETDGLDPNDFDPKTFFKLHDVNNDGFLDEQELEALFTRELEKVYNPQNAEDDMIEMEEERLRMREHVMSEIDNNKDRLVTLEEFLRATEKKEFLEPDSWETLDQQQLFTEDELKEYESIIAIQENELKKRAEELQKQKEDLQRQHDHLEAQKQEYHQAVQHLEQKKLQQGIAPSGPAGELKFEPHT
modifications: Chemically-synthesized nesfatin mutant protein
Turning to B1, the “amount of food intake” value is listed as “significantly reduced” in the data set with Wistar rats [2] (4 pmol or 20 pmol into the brain ventricle, 0-1 hour, p<0.01 vs 0 pmol); “significant reduction in the amount of food intake” in the data set on Wistar rats [2] (5 pmol intraventricular, 0-1 hour (p<0.01), 1-3 hours (p<0.05) and 3-6 hours (p<0.001)); “no difference” in the data set with Wistar rats [2] (5 pmol intraventricular, 6-12 hours); “significant activity of suppressing food intake” in the data set on Wistar rats [2] (20 pmol into the third ventricle, any of 0-1 hour/1-3 hours/3-6 hours, P<0.01 vs control); “reduction in the amount of food intake was noted in a dose dependent manner” with Wistar rats [2] (1, 4 and 20 pmol into the third ventricle, 0-1, 1-3 and 3-6 hours, vs saline). Also, the “control activity of food intake” value with Wistar rats [2] (setting [4]) is given as “a significant control activity of food intake was observed”. The “amount of food intake for 1 hour after administration” value with Wistar rats [3] is “significantly decreased”.

B2: Mut: nesfatin mutant in which Lys-Arg at amino acid numbers 84 and 85 is replaced with Ala-Ala (SEQ ID NO: 61) (protein)
chain: B1 chain with K84A, R85A
modifications: Chemically-synthesized KR-AA mutant polypeptide
In the case of B2, the “control activity of food intake” value in the data set with Wistar rats [2] (setting [4]) is recorded as “no control activity of food intake was observed”.

For the origin of these results see patent publication US7795390B2, “Biological substance nesfatin and its related substances and uses thereof” (Teijin Pharma Limited, priority 2005, dated 2010).
